Data as given in patent US12037419B2 (The Feinstein Institutes for Medical Research, priority 2016, dated 2024).
pKd: −log10 of the molar value.

How the values were obtained:
human monocytes [1] = assay: Internalization of FITC-labeled HMGB1 or CpG by monocytes (immunofluorescence microscopy); type: cell-based
Protocol: Immunofluorescence Microscopy: In situ proximal ligation assay was performed according to manufacturer's protocol (Duolink, Sigma). Following stimulation, human monocytes were washed three times with ice-cold PBS and were fixed with 4% (wt/vol) PFA for 1 hour at room temperature, seeded (2×10^5 cells) on slides using cytospin (Shandon), permeablized with chilled MeOH for 4 min and with PBS/0.1% (vol/vol) Triton X-100 and blocked for 1 h at room temperature. Cells were then incubated overnight with a primary antibody pair directed to rabbit anti-RAGE (ab3611, Abcam) and to mouse anti-LAIR-1 (BD Bioscience), respectively. The cells were incubated with corresponding PLA probes conjugated to oligonucleotides (mouse MINUS and rabbit PLUS), then followed by ligation and rolling circle amplification in close proximity. Images were acquired using AxioVision software and a confocal microscope (Olympus). Quantification was performed using Zen2 (Zeiss). […] Cells were washed three times with cold-PBS and fixed with 4% PFA and stained with PECy5-anti-human CD14 antibody (BD biosciences) or propidium iodide (PI). […] PI or DAPI was used for nuclear staining. […] After washing, cells were stained with Alexa Fluor 594 anti-rabbit IgG (Life Technologies), and mounted DAPI-containing medium. […]

RAGE and LAIR-1 = molecular target: T1, RAGE and LAIR-1 (Homo sapiens, UniProt Q15109+Q6GTX8); assay: Proximity ligation assay (PLA) for colocalization of RAGE and LAIR-1 on monocytes; type: cell-based
T1 construct: endogenous in cells; host or cells: primary human monocytes from blood of healthy donors
T1 sequence (Q15109 23-404): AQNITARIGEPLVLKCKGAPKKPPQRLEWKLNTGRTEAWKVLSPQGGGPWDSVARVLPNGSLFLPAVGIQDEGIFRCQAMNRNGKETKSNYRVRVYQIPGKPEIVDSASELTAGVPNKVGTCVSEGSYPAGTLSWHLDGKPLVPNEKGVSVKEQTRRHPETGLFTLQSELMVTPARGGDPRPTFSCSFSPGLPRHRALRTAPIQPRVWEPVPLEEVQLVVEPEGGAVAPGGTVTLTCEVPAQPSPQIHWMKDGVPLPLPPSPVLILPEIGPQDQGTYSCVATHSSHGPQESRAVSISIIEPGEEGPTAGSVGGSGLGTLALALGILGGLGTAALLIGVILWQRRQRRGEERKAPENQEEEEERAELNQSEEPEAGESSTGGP
T1 sequence (Q6GTX8 22-287): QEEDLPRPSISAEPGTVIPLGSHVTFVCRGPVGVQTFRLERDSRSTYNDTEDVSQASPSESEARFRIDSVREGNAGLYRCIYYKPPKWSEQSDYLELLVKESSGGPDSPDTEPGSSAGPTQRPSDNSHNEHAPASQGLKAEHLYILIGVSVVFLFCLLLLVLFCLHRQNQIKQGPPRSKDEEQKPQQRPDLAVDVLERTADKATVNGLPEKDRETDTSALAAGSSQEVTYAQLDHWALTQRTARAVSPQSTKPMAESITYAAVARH
Protocol: Cells were then incubated overnight with a primary antibody pair directed to rabbit anti-RAGE (ab3611, Abcam) and to mouse anti-LAIR-1 (BD Bioscience), respectively. The cells were incubated with corresponding PLA probes conjugated to oligonucleotides (mouse MINUS and rabbit PLUS), then followed by ligation and rolling circle amplification in close proximity. Images were acquired using an AxioImage Z1 (Zeiss) apotome enabled (Zeiss) Fluorescent-intensity analysis of the images was performed using Zen2 (Zeiss).
Immunofluorescence Microscopy: In situ proximal ligation assay was performed according to manufacturer's protocol (Duolink, Sigma). Following stimulation, human monocytes were washed three times with ice-cold PBS and were fixed with 4% (wt/vol) PFA for 1 hour at room temperature, seeded (2×10^5 cells) on slides using cytospin (Shandon), permeablized with chilled MeOH for 4 min and with PBS/0.1% (vol/vol) Triton X-100 and blocked for 1 h at room temperature. Cells were then incubated overnight with a primary antibody pair directed to rabbit anti-RAGE (ab3611, Abcam) and to mouse anti-LAIR-1 (BD Bioscience), respectively. The cells were incubated with corresponding PLA probes conjugated to oligonucleotides (mouse MINUS and rabbit PLUS), then followed by ligation and rolling circle amplification in close proximity. […] Quantification was performed using Zen2 (Zeiss). […]

HMGB1 = molecular target: T2, HMGB1 (Homo sapiens, UniProt P09429); assay: SPR assay of HMGB1 and C1q binding, including redox states of HMGB1
T2 construct: made in house
T2 sequence (P09429 1-215): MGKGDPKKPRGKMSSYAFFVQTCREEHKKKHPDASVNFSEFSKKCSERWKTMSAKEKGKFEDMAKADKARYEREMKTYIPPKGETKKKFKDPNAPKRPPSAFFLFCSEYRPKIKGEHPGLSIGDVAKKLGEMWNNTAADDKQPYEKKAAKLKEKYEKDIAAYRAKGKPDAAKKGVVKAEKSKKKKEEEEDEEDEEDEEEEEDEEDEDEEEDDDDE
Protocol: Surface Plasmon Resonance analysis (SPR): For real-time binding interaction studies, a BIAcore T200 instrument (GE Healthcare) was used. […] A 1:1 mixture of N-hydroxysuccinimide and N-ethyl-N-(dimethyaminopropyl) carbodiimide was used to activate 2 flow-cells of the CMS chip. […] The analytes were diluted in 1×PBS+0.01% (vol/vol) tween-20 buffer. The analytes were sequentially injected at a flow rate of 30 μl/min for 60 s at 25° C. The KD was dertermined using the BIAcore evaluation software 2.0 (GE Healthcare) supposing a 1:1 binding ratio.
A 1:1 mixture of N-hyrdoxysuccinimide and N-ethyl-N-(dimethyaminopropyl) carbodiimide was used to activate 2 flow-cells of the CMS chip. […] The analyte (HMGB1) was diluted in 1×HBS-N+0.05% tween-20 buffer (filtered—0.22 um). Three redox states of HMGB1 were sequentially injected at a flow rate of 20 μl/min for 60 s at 25° C., the dissociation time was set for 3 minutes. The concentration was set at 500 nM.
The analytes were diluted in 1×HBS-N+0.05% tween-20 buffer (filtered—0.22 um). The analytes were sequentially injected at a flow rate of 20 μl/min for 60 s at 25° C. The dissociation time was set for 3 minutes. The KD for each analyte was determined using the Biacore evaluation software 2.0 supposing a 1:1 binding ratio.

human monocytes [2] = assay: Monocyte to DC differentiation with GM-CSF and IL-4 (flow cytometry); type: cell-based; details: compared with C1q alone
[3] = molecular target: T3, LAIR-1 and RAGE in lipid rafts (Homo sapiens, UniProt Q15109+Q6GTX8); assay: Lipid raft fractionation and Western blot; type: cell-based; details: in the presence of HMGB1 and C1q
T3 construct: endogenous in cells; host or cells: monocytes
T3 sequence (Q6GTX8 22-287): as the sequence (Q6GTX8 22-287) above
T3 sequence (Q15109 23-404): as the sequence (Q15109 23-404) above
Protocol: Lipid raft fractionation: Lipid rafts were prepared as described (50). Monocytes (5×10^6) were lysed in 1 ml THE buffer (25 mM Tris, 150 mM NaCl, 5 mM EDTA) containing 1% Triton and incubated for 30 min on ice. Lysates were homogenized with 10 strokes of a dounce homogenizer, mixed with 2 ml of 80% sucrose in TNE buffer, and transferred to a centrifuge tube. Samples were overlaid with 4 ml of 30% sucrose and 2 ml of 5% sucrose in TNE. After centrifugation for 16 h at 180,000 g in a Beckman Coulter SW41Ti rotor, 0.8 ml fractions were collected from the top of the gradient. Each fraction was subjected to slot blot analysis to identify GM1-enriched rafts fraction using FITC-conjugated cholera toxin-B subunit (Sigma). Lipid raft fractions were precipitated with TCA and washed with 70% EtOH, then subjected to slot blot analysis or Western blot.

[4] = system: allogeneic primary human CD4 T cells; assay: Allogeneic mixed lymphocyte reaction; type: cell-based; details: HMGB1 3 μg/ml, C1q 25 μg/ml
Protocol: Allogeneic CD4 T lymphocytes were isolated from blood using the Naïve CD4+ T cell isolation kit II (Miltenyi Biotec.) following the manufacturer's protocol. Cells were analyzed by flow cytometry (>90%). T cells were labeled with 5 μM Cell Trace Violet cell proliferation kit (Thermo Fisher Scientific), added to mono/macrophages at a density of 2×10^5 cells/well (a 1:2 ratio) in the presence of 1 μg/ml anti-CD3 (OKT3, eBioscience). Control cultures contained medium only or T cells or mono/macrophages alone. After 4 days, cells were stained with FITC-anti-CD4, PerCPCy 5.5-CD14, PE-LAIR-1 and fixable viability dyes (FVD, eBioscience) for 20 min at room temperature and subsequently washed and fixed. Live cells (FVD-negative cells) were then gated on CD4-positive, and cell trace violet was assessed by flow cytometry on a BD LSR II (BD Biosciences). Cell proliferation was analyzed as described (51). The % divided cells was defined as the probability that a cell has divided at least once from the original population. The division index was defined as the average number of cell divisions that a cell in the original population has undergone.

## C1q: C1q purified from pooled normal human sera, obtained from Complement Technology
Human monocytes [1]; 15 min
  internalization of FITC-labeled CpG oligonucleotides: significantly reduced cellular internalization
Human monocytes [1]; FITC-HMGB1 3 μg/ml, C1q 25 μg ml-1, 15 min, 37° C.
  cytosolic FITC-HMGB1 (internalization): significantly decreased
RAGE and LAIR-1; C1q with or without HMGB1
  RAGE-LAIR-1 colocalization (PLA fluorescence): only detected in the presence of C1q
RAGE and LAIR-1; data not shown
  RAGE-LAIR-1 cross-linking with C1q co-incubated with LAIR-2: negated the cross-linking of RAGE and LAIR-1
HMGB1; disulfide, all thiol, oxidized HMGB1
  binding to different redox states of HMGB1: preferentially binding to the disulfide form of HMGB1
HMGB1; read-out: KD of HMGB1 and C1q binding, 25° C., 1:1 binding ratio supposed
  pKd: 6.70
Human monocytes [2]
  expression of CD14 and LAIR-1 after GM-CSF and IL-4, pre-exposure to both HMGB1 and C1q: significantly higher
[3]
  localization of LAIR-1 and RAGE in lipid rafts: LAIR-1 migrated to lipid rafts where LAIR-1 colocalized with RAGE
[4]
  stimulation of T cells by monocytes exposed to both HMGB1 and C1q: poor stimulators of T cells
